Several values for one entry are separate records, joined by “and”; a condition that tells them apart may be missing. Identical values can stand only once.
Columns and labels:
[1] = test system: M. lysodeikticus cell wall; assay: Lysozyme activity: hydrolysis of M. lysodeikticus; assay type: biochemical, Micrococcus lysodeikticus
Description: Measurement of Lysozyme Activity. […] The decrease in turbidity was measured at 450 nm on a recording spectrophotometer. […] Kinetic constants were determined from the linear plots of 1/initial velocity (in change of absorbance/min) against 1/substrate concentration in mg/ml as described (Lineweaver, H. and Burk, D. (1934) J. Amer. Chem. Soc. 56, 658-666). […] Applicant always dedicated a separate spectrophotometer cuvette for this positive control. […] The decrease in turbidity was monitored at room temperature at 450 nm.

yeast RNA [2] = assay: Ribonuclease activity: hydrolysis of yeast RNA; assay type: biochemical
Description: Measurement of Ribonuclease Activity. The catalytic activity of RNase and RnPepz were determined by their hydrolytic effects on yeast RNA (Kunitz, M. (1946) J. Biol. Chem. 164, 563-569; Gutte, B. and […]. Biol. Chem. 246, 1922-1941). […] The decrease in absorbance at 300 nm with time was measured on the recording spectrophotometer. Reaction mixtures that contained no catalyst as well as mixtures containing LyPepz or other cyclic peptides unrelated to RNase were used as controls. The kinetic parameters of the hydrolytic activities were determined by Lineweaver-Burk plots (Lineweaver, H. and Burk, D. (1934) J. Amer. Chem. Soc. 56, 658-666) of 1/absorbance change per minute against 1/substrate concentration in mg per ml. […] The change in absorbance with the test samples (RnPepz) was correlated for the small change obtained with the same amount of unrelated peptides (negative controls) acting on the corresponding concentration of substrate. […] The effects of disulfide-bond reduction on RNase and RnPepz activities were determined by premixing each catalyst (RNase, 1.095×10^-4 μmole; […] The reactions were monitored by the decrease in absorbance at 300 nm as above. The effects of inhibitors (denatured DNA or Ag^+) on activities were also done by pre-mixing RNase or RnPepz with denatured DNA (250 μg) or with 10 molar excess of AgNO3 prior to addition to RNA, using the same amounts of catalyst and substrate described for DTT. Denaturation of DNA was done by boiling a solution in water (1 mg/ml) for 10 min, then chilling immediately in ice.

[3] = test system: M. lysodeikticus cell wall; conditions: 0.125M NaCl; Neville et al. 1972; cited from earlier work
yeast RNA [4] = conditions: Gutte et al. 1971; Edelhock and Coleman 1956; cited from earlier work
[5] = 10 molar excess, pre-mixed 3 hr
[6] = hydrolysis of M. lysodeikticus, 25° C., 0.125M NaCl
[7] = hydrolysis of yeast RNA, 0.1M sodium acetate, pH 5.0, 25° C.

Molecule	activity on M. lysodeikticus in presence of histamine [1, 5]	activity on M. lysodeikticus in presence of imidazole [1, 5]	activity on M. lysodeikticus in presence of tryptamine [1, 5]	Km [1, 6] [mg/L]	kcat [1, 6] [OD units/μmole/sec]	hydrolytic activity on yeast RNA (yeast RNA [2]; in words)	Km reported value [3] [mg/L]	activity on yeast RNA in presence of denatured DNA (yeast RNA [2]; 250 μg denatured DNA)	activity on yeast RNA in presence of Ag^+ (heavy metals) (yeast RNA [2]; 10 molar excess of AgNO3)	hydrolytic activity on yeast RNA at 10° C. (yeast RNA [2]; 10° C.)	Km (yeast RNA [2]; [7]) [mg/L]	kcat (yeast RNA [2]; [7]) [OD units/μmole/sec]	Km reported values (yeast RNA [4])
LYZ: hen egg lysozyme	completely inhibited	completely inhibited	completely inhibited	120.6 ± 4.0	9.26 ± 0.12	no effect	129	–	–	–	–	–	–
RNase: bovine ribonuclease A (protein, UniProt P61823 27-150, looked up) Ribonuclease pancreatic: KETAAAKFERQHMDSSTSAASSSNYCNQMMKSRNLTKDRCKPVNTFVHESLADVQAVCSQKNVACKNGQTNCYQSYSTMSITDCRETGSSKYPNCAYKTTQANKHIIVACEGNPYVPVHFDASV	–	–	–	–	–	–	–	completely inhibited	completely inhibited	neither RnPepz nor RNase had any measurable hydrolytic activity	1254 ± 460	14.05 ± 6.85	1.20 mg/mL and 1.25 mg/mL

— patent publication US5861477A (priority 1996, dated 1999)
